From US20190127444A1 (NEW YORK UNIVERSITY, published 2019)

Key:
[1] = biological target: T1, LukAB toxoid variant (LukA E323A), recombinant polyhistidine-tagged (S. aureus, UniProt Q2FFA2 28-351; P21224 30-338); test: SPR (Biacore T200)
T1 sequence 1: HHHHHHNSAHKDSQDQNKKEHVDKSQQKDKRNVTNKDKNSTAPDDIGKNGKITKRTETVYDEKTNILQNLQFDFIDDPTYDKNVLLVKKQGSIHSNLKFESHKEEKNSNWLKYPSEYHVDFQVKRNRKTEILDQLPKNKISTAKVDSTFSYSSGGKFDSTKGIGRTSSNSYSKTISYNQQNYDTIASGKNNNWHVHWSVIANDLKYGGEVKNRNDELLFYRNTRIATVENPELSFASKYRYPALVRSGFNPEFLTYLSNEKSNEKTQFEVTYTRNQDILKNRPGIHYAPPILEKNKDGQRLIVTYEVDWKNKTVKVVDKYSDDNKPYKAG
T1 sequence 2: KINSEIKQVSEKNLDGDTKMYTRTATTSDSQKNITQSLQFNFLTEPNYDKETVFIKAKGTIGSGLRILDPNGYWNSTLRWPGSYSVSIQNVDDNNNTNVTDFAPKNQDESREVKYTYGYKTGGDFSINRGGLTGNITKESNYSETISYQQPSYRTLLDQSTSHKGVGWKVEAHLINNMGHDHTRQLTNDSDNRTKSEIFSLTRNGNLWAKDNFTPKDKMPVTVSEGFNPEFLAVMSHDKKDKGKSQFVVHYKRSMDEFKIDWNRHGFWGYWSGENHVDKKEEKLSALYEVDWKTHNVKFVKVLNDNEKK

[2] = biological target: T1, LukAB toxoid variant (LukA E323A), …; test: SPR (Biacore T200), single cycle kinetics, 1:1 model
[3] = biological target: T2, LukE, recombinant parental form with amino-terminal poly-histidine and streptavidin binding sequences (S. aureus); test: BLI, biotinylated LukE on streptavidin pins, Luk26 FN3 at 10 ug/mL
T2 chain: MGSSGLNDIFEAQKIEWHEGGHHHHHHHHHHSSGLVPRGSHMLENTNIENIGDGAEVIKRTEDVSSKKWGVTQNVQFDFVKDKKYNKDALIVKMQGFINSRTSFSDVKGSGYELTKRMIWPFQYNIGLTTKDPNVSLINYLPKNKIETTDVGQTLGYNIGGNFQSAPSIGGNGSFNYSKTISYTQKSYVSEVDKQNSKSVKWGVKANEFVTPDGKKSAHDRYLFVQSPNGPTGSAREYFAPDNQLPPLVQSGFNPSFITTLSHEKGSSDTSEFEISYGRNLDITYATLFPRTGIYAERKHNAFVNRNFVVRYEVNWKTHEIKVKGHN

[4] = biological target: T3, LukE, recombinant protein used for HDX mapping (Staphylococcus aureus, UniProt Q2FXB0 24-306); test: HDX-MS
T3 construct: also called LukE (HDX)
T3 chain: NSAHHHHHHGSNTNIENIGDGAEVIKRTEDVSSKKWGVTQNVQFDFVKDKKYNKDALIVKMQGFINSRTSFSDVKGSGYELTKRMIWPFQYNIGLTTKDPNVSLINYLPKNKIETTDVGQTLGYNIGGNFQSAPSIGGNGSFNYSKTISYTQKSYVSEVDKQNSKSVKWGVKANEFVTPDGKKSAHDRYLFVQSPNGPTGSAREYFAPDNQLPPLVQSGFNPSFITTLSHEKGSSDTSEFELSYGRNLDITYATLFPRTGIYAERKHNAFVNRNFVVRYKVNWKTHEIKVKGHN

[5] = biological target: T1, LukAB toxoid variant (LukA E323A), …; test: ELISA and neutralisation assay
[6] = biological target: T4, recombinant Protein A (ProSpec-TanyTechnoGene Ltd.), biotinylated (S. aureus, UniProt P38507 37-327); test: ELISA, biotinylated Protein A on streptavidin plate
T4 construct: also called SpA
Description: Characterization of Protein A binding was determined by ELISA. Briefly, plates were coated with streptavidin (5 μg/mL in PBS, 50 μL per well) and incubated overnight at 4° C. Plates were washed three times with ELISA wash buffer (0.15M NaCl, 0.02% Tween-20) and then coated with biotinylated Protein A at 2 μg/mL (50 L per well) in PBS for one hour at room temperature. Plates were then washed three times with ELISA wash buffer and then blocked with ELISA blocking buffer (3% BSA in PBS, 200 μL per well). Test articles were then added in a 3-fold dilution series starting at 10 μg/mL and the plates incubated at room temperature for one hour. Plates were then washed three times with ELISA wash buffer and 50 mL per well of HRP-conjugated goat anti-human kappa light chain (Millipore AP502P) added at a 1:15,000 dilution in 3% BSA in PBS and the plates incubated for one hour at room temperature. Plates were then washed five times with ELISA wash buffer and bound HRP detected using the 3,3′,5,5′-Tetramethylbenzidine (TMB; Fitzgerald) as a chromogenic substrate.

[7] = biological target: T1, LukAB toxoid variant (LukA E323A), …; test: BLI, FN3 protein on streptavidin pins, LukAB in solution

B1: mAb 5133 PRASA A6 HC-L4-E-L4-AB (Table 1 Construct 11) (bispecific antibody)
heavy: EVQLVETGGGLVKPGGSLRLSCSASRFSFRDYYMTWIRQAPGKGPEWVSHISGSGSTIYYADSVRGRFTISRDNAKSSLYLQMDSLQADDTAVYYCARGGRATSYYWVHWGPGTLVTVSSASTKGPSVFPLAPSSKSTSGGTAALGCLVKDYFPEPVTVSWNSGALTSGVHTFPAVLQSSGLYSLSSVVTVPSSSLGTQTYICNVNHKPSNTKVDKKVEPKSCDKTHTCPPCPAPPVAGPDVFLFPPKPKDTLMISRTPEVTCVVVDVSHEDPEVKFNWYVDGVEVHNAKTKPREEQYNSTYRVVSVLTVLHQDWLNGKEYKCKVSNAALPAPIAKTISKAKGQPREPQVYTLPPSRDELTKNQVSLTCLVKGFYPSDIAVEWESNGQPENNYKTTPPVLDSDGSFFLYSKLTVDKSRWQQGNVFSCSVMHEALHNRFTQKSLSLSPGKGGGGSGGGGSGGGGSGGGGSMLPAPKNLVVSRVTEDSARLSWTAPDAAFDSFHIEYAEPWVWGEAIVLTVPGSERSYDLTGLKPGTEYVVFIGGVKGGHNSTPLSAIFTTGGGGSGGGGSGGGGSGGGGSMLPAPKNLVVSRVTEDSARLSWTAPDAAFDSFWITYEEKFYRGEAIVLTVPGSERSYDLTGLKPGTEYKVWIVGVKGGQGSWPLSAIFTT
light: EIVLTQSPATLSLSPGERATLSCRASQSVSGYLGWYQQKPGQAPRLLIYGASSRATGIPDRFSGSGSGTDFTLTISRLEPEDFAVYYCQQYGSSPLTFGGGTKLEIKRTVAAPSVFIFPPSDEQLKSGTASVVCLLNNFYPREAKVQWKVDNALQSGNSQESVTEQDSKDSTYSLSSTLTLSKADYEKHKVYACEVTHQGLSSPVTKSFNRGEC
notes: also called CR5133 PRASA A6 HC-L4-E-L4-AB; 4×4 variant
fold higher binding affinity than Construct 6 [1]: ~6 fold | Kd [2]: 0.012 nM

B2: Luk26 FN3 protein with carboxyl-terminal poly-histidine sequence (designed binder)
chain: MLPAPKNLVVSRVTEDSARLSWTAPDAAFDSFHIEYAEPWVWGEAIVLTVPGSERSYDLTGLKPGTEYVVFIGGVKGGHNSTPLSAIFTTGGHHHHHH
binding result [3]: binds

B3: Luk26 LukE binding FN3 domain (designed binder)
chain: LPAPKNLVVSRVTEDSARLSWTAPDAAFDSFHIEYAEPWVWGEAIVLTVPGSERSYDLTGLKPGTEYVVFIGGVKGGHNSTPLSAIFTT
binding result [4]: binds

B4: Luk17 LukAB binding FN3 domain (designed binder)
chain: LPAPKNLVVSRVTEDSARLSWTAPDAAFDSFWITYEEKFYRGEAIVLTVPGSERSYDLTGLKPGTEYKVWIVGVKGGQGSWPLSAIFTT
binding result [5]: binds

B5: anti-LTA (Pagibaximab) PRASA A6 (Table 1 Construct 33) (antibody, human IgG1, kappa)
heavy: EVMLVESGGGLVQPKGSLKLSCAASGFTFNNYAMNWVRQAPGKGLEWVARIRSKSNNYATFYADSVKDRFTISRDDSQSMLYLQMNNLKTEDTAMYYCVRRGASGIDYAMDYWGQGTSLTVSSASTKGPSVFPLAPSSKSTSGGTAALGCLVKDYFPEPVTVSWNSGALTSGVHTFPAVLQSSGLYSLSSVVTVPSSSLGTQTYICNVNHKPSNTKVDKKVEPKSCDKTHTCPPCPAPPVAGPDVFLFPPKPKDTLMISRTPEVTCVVVDVSHEDPEVKFNWYVDGVEVHNAKTKPREEQYNSTYRVVSVLTVLHQDWLNGKEYKCKVSNAALPAPIAKTISKAKGQPREPQVYTLPPSRDELTKNQVSLTCLVKGFYPSDIAVEWESNGQPENNYKTTPPVLDSDGSFFLYSKLTVDKSRWQQGNVFSCSVMHEALHNRFTQKSLSLSPGK
light: DIVLSQSPAILSASPGEKVTMTCRASSSVNYMHWYQQKPGSSPKPWISATSNLASGVPARFSGSGSGTSYSLTISRVEAEDAATYYCQQWSSNPPTFGGGTMLEIKRTVAAPSVFIFPPSDEQLKSGTASVVCLLNNFYPREAKVQWKVDNALQSGNSQESVTEQDSKDSTYSLSSTLTLSKADYEKHKVYACEVTHQGLSSPVTKSFNRGEC
notes: also called LTA PRASA A6; PRASA A6 variant of pagibaximab
binding result [6]: no binding (tested: 10 µg/mL)

B6: TENCON-His-SA (designed binder)
chain: MLPAPKNLVVSRVTEDSARLSWTAPDAAFDSFLIQYQESEKVGEAIVLTVPGSERSYDLTGLKPGTEYTVSIYGVKGGHRSNPLSAIFTTGGHHHHHHGGGLNDIFEAQKIEWHE
notes: also called parental control FN3 domain protein
binding result [7]: no binding (tested: 10 ug/mL)
